# Measured values as given in patent US20150203577A1 (Chugai, published 2015).
# Changes are numbered by the printed parent chain. In names and notes the source's numbering stands.
# T1: mouse FcγRII extracellular domain, C-terminal His tag (mouse, UniProt P08101 30-210)
# T1 construct: also called mFcγRII; mFcgRII
# T1 sequence: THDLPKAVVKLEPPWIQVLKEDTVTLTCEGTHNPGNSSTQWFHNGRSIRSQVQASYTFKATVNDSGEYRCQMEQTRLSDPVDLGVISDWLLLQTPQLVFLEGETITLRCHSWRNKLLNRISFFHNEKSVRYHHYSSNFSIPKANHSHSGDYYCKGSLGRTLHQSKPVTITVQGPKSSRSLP
# T2: mouse FcγRIII extracellular domain, C-terminal His tag (mouse, UniProt P08508 31-215)
# T2 construct: also called mFcγRIII; mFcgRIII
# T2 chain: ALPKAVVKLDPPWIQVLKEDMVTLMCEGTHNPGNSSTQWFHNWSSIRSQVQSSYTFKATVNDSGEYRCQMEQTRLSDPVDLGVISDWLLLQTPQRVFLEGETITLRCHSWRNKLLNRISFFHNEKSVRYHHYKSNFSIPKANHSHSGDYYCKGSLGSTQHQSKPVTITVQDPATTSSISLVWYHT
# B1: H237-MB750/MRAL-k0 (antibody, mouse IgG1, kappa)
# heavy: QVQLQESGPGLVKPSETLSLTCAVSGHSISHDHAWSWVRQPPGEGLEWIGFISYSGITNYNPSLQGRVTISRDNSKNTLYLQMNSLRAEDTAVYYCARSLARTTAMDYWGEGTLVTVSSAKTTPPSVYPLAPGSAAQTNSMVTLGCLVKGYFPEPVTVTWNSGSLSSGVHTFPAVLQSDLYTLSSSVTVPSSTWPSETVTCNVAHPASSTKVDKKIVPRDCGCKPCICEPNEVELVFIFPPKPKDVLTITLTPKVTCVVVDISKDDPEVQFSWFVDDVEVHTAQTQPREEQFNSTFRSVSELPIMHQDWLNGKEFKCRVNSDAFPAPIEKTISKTKGRPKAPQVYTIPPPKEQMAKDKVSLTCMITDFFPEDITVEWQWNGQPAENYKNTQPIMDTDGSYFVYSKLNVQKSNWEAGNTFTCSVLHEGLHNHHTEKSLSHSPGK
# light: not shown
# notes: copies: 2 + 2
# B2: H237-MB539/MRAL-k0 (antibody, mouse IgG1, kappa)
# heavy: B1 heavy with L235M, S294L, N320D, D322A
# light: not shown
# notes: copies: 2 + 2
# B3: H237-MB533/MRAL-k0 (antibody, mouse IgG1, kappa)
# heavy: B1 heavy with E229Q, L235E, S294L, N320D
# light: not shown
# notes: copies: 2 + 2
# B4: H237-MB548/MRAL-k0 (antibody, mouse IgG1, kappa)
# heavy: B1 heavy with L235M, N320D, K330R
# light: not shown
# notes: copies: 2 + 2
# B5: H237-MB547/MRAL-k0 (antibody, mouse IgG1, kappa)
# heavy: B1 heavy with L235M, S294L, K330R
# light: not shown
# notes: copies: 2 + 2
# B6: H237-MB537/MRAL-k0 (antibody, mouse IgG1, kappa)
# heavy: B1 heavy with E229Q, L235E, S294L, N320D, K330R
# light: not shown
# notes: copies: 2 + 2
# B7: H237-MB536/MRAL-k0 (antibody, mouse IgG1, kappa)
# heavy: B1 heavy with E229Q, L235E, N320D, K330R
# light: not shown
# notes: copies: 2 + 2
# B8: H237-MB630/MRAL-k0 (antibody, mouse IgG1, kappa)
# heavy: B1 heavy with D322A
# light: not shown
# notes: copies: 2 + 2
# B9: H237-MB527/MRAL-k0 (antibody, mouse IgG1, kappa)
# heavy: B1 heavy with E229Q, L235E, S294L, N320D, D322A
# light: not shown
# notes: copies: 2 + 2
# B10: H237-MB710/MRAL-k0 (antibody)
# heavy: B1 heavy with N231A, L235Q, D322A
# light: not shown
# notes: T0025 prints T230E/V231P/P232N/S238E/S239Q for MB710; EU numbering; copies: 2 + 2
# B11: H237-MB545/MRAL-k0 (antibody, mouse IgG1, kappa)
# heavy: B1 heavy with L235M, S294L, N320D
# light: not shown
# notes: copies: 2 + 2
# B12: H237-MB531/MRAL-k0 (antibody, mouse IgG1, kappa)
# heavy: B1 heavy with E229Q, L235E, N320D, D322A, K330R
# light: not shown
# notes: copies: 2 + 2
# B13: H237-MB543/MRAL-k0 (antibody, mouse IgG1, kappa)
# heavy: B1 heavy with L235M, N320D, D322A, K330R
# light: not shown
# notes: copies: 2 + 2
# B14: H237-MB529/MRAL-k0 (antibody, mouse IgG1, kappa)
# heavy: B1 heavy with E229Q, L235E, S294L, D322A, K330R
# light: not shown
# notes: copies: 2 + 2
# B15: H237-MB544/MRAL-k0 (antibody, mouse IgG1, kappa)
# heavy: B1 heavy with L235M, K330R
# light: not shown
# notes: copies: 2 + 2
# B16: H237-MB549/MRAL-k0 (antibody, mouse IgG1, kappa)
# heavy: B1 heavy with L235M, S294L, N320D, K330R
# light: not shown
# notes: copies: 2 + 2
# B17: H237-MB515/MRAL-k0 (antibody, mouse IgG1, kappa)
# heavy: B1 heavy with L235M, D322A
# light: not shown
# notes: copies: 2 + 2
# B18: H237-MB542/MRAL-k0 (antibody, mouse IgG1, kappa)
# heavy: B1 heavy with L235M, N320D
# light: not shown
# notes: copies: 2 + 2
# B19: H237-MB540/MRAL-k0 (antibody, mouse IgG1, kappa)
# heavy: B1 heavy with L235M, S294L
# light: not shown
# notes: copies: 2 + 2
# B20: H237-MB532/MRAL-k0 (antibody, mouse IgG1, kappa)
# heavy: B1 heavy with E229Q, L235E, K330R
# light: not shown
# notes: copies: 2 + 2
# B21: H237-MB476/MRAL-k0 (antibody, mouse IgG1, kappa)
# heavy: B1 heavy with E229Q, L235E, D322A
# light: not shown
# notes: copies: 2 + 2
# B22: H237-MB530/MRAL-k0 (antibody, mouse IgG1, kappa)
# heavy: B1 heavy with E229Q, L235E, N320D
# light: not shown
# notes: copies: 2 + 2
# B23: H237-MB748/MRAL-k0 (antibody, mouse IgG1, kappa)
# heavy: B1 heavy with S263A, D322A
# light: not shown
# notes: copies: 2 + 2
# B24: H237-MB538/MRAL-k0 (antibody, mouse IgG1, kappa)
# heavy: B1 heavy with L235M, S294L, D322A
# light: not shown
# notes: copies: 2 + 2
# B25: H237-MB535/MRAL-k0 (antibody, mouse IgG1, kappa)
# heavy: B1 heavy with E229Q, L235E, S294L, K330R
# light: not shown
# notes: copies: 2 + 2
# Biological target: T1, mouse FcγRII extracellular domain, …
# Assay: SPR (Biacore T200), antibody captured on Protein L, mFcγR analyte
# Protocol: (§1) Each altered antibody was analyzed for its interaction with each Fcγ receptor prepared above using Biacore T100 (GE Healthcare Japan Corp.), Biacore T200 (GE Healthcare Japan Corp.), Biacore A100, or Biacore 4000. The running buffer used was HBS-EP+ (GE Healthcare Japan Corp.). The assay temperature was set to 25° C. The sensor chips used were chips prepared by immobilizing Protein L (ACTIGEN or BioVision) onto Series S Sensor Chip CM5 (GE Healthcare Japan Corp.) or Series S Sensor Chip CM4 (GE Healthcare Japan Corp.) by the amine coupling method.
# (§2) In order to calculate the KD value of each altered antibody for FcγR, kinetic analysis was conducted according to the following method: first, the antibody of interest was captured onto any of these chips and allowed to interact with mFcγR diluted with a running buffer. For the obtained sensorgram, the assay results were globally fit into the 1:1 Langmuir binding model using Biacore Evaluation Software to calculate an association rate constant ka (L/mol/s) and a dissociation rate constant kd (1/s). From these values, the dissociation constant KD (mol/L) was calculated.
Binder,Kd,relative mFcγRII-binding activity (mIgG1 = 1)
B1,7.13 nM,29.4 fold vs H237-mIgG1/MRAL-k0
B2,2 nM,105 fold vs H237-mIgG1/MRAL-k0
B3,0.534 nM,394 fold vs H237-mIgG1/MRAL-k0
B4,0.589 nM,357 fold vs H237-mIgG1/MRAL-k0
B5,1.23 nM,170 fold vs H237-mIgG1/MRAL-k0
B6,0.412 nM,510 fold vs H237-mIgG1/MRAL-k0
B7,0.53 nM,396 fold vs H237-mIgG1/MRAL-k0
B8,14.7 nM,14.3 fold vs H237-mIgG1/MRAL-k0
B9,0.768 nM,273 fold vs H237-mIgG1/MRAL-k0
B10,4.13 nM,50.8 fold vs H237-mIgG1/MRAL-k0
B11,1.29 nM,163 fold vs H237-mIgG1/MRAL-k0
B12,0.918 nM,229 fold vs H237-mIgG1/MRAL-k0
B13,1.08 nM,195 fold vs H237-mIgG1/MRAL-k0
B14,0.745 nM,282 fold vs H237-mIgG1/MRAL-k0
B15,0.76 nM,276 fold vs H237-mIgG1/MRAL-k0
B16,1 nM,210 fold vs H237-mIgG1/MRAL-k0
B17,1.53 nM,137 fold vs H237-mIgG1/MRAL-k0
B18,0.547 nM,384 fold vs H237-mIgG1/MRAL-k0
B19,1.41 nM,149 fold vs H237-mIgG1/MRAL-k0
B20,0.639 nM,329 fold vs H237-mIgG1/MRAL-k0
B21,0.804 nM,261 fold vs H237-mIgG1/MRAL-k0
B22,0.337 nM,623 fold vs H237-mIgG1/MRAL-k0
B23,17.9 nM,11.7 fold vs H237-mIgG1/MRAL-k0
B24,2.44 nM,86.2 fold vs H237-mIgG1/MRAL-k0
B25,0.498 nM,422 fold vs H237-mIgG1/MRAL-k0

# Biological target: T2, mouse FcγRIII extracellular domain, …
# Assay: as above
# Protocol: as §1, §2
Binder,Kd,relative mFcγRIII-binding activity (mIgG1 = 1)
B1,705 nM,0.4 fold vs H237-mIgG1/MRAL-k0
B2,147 nM,1.9 fold vs H237-mIgG1/MRAL-k0
B3,39 nM,7.2 fold vs H237-mIgG1/MRAL-k0
B4,71.7 nM,3.9 fold vs H237-mIgG1/MRAL-k0
B5,62.3 nM,4.5 fold vs H237-mIgG1/MRAL-k0
B6,31.7 nM,8.9 fold vs H237-mIgG1/MRAL-k0
B7,36.8 nM,7.7 fold vs H237-mIgG1/MRAL-k0
B8,1120 nM,0.3 fold vs H237-mIgG1/MRAL-k0
B9,51 nM,5.5 fold vs H237-mIgG1/MRAL-k0
B10,232 nM,1.2 fold vs H237-mIgG1/MRAL-k0
B11,106 nM,2.7 fold vs H237-mIgG1/MRAL-k0
B12,85 nM,3.3 fold vs H237-mIgG1/MRAL-k0
B13,126 nM,2.2 fold vs H237-mIgG1/MRAL-k0
B14,47.6 nM,5.9 fold vs H237-mIgG1/MRAL-k0
B15,87.2 nM,3.2 fold vs H237-mIgG1/MRAL-k0
B16,52.1 nM,5.4 fold vs H237-mIgG1/MRAL-k0
B17,214 nM,1.3 fold vs H237-mIgG1/MRAL-k0
B18,83.3 nM,3.4 fold vs H237-mIgG1/MRAL-k0
B19,99.4 nM,2.8 fold vs H237-mIgG1/MRAL-k0
B20,45.4 nM,6.2 fold vs H237-mIgG1/MRAL-k0
B21,107 nM,2.6 fold vs H237-mIgG1/MRAL-k0
B22,35.1 nM,8 fold vs H237-mIgG1/MRAL-k0
B23,2060 nM,0.1 fold vs H237-mIgG1/MRAL-k0
B24,164 nM,1.7 fold vs H237-mIgG1/MRAL-k0
B25,33.2 nM,8.5 fold vs H237-mIgG1/MRAL-k0
